Biological target: the molecule itself
Test: crystal structure; crystals at 20°C by vapor diffusion, 0.2 M ammonium sulfate, 0.1 M trisodium citrate pH 5.6, 15% PEG 4000; space group C2221; one tetramer in the asymmetric unit; 2.57 Å

B1: Peptidoglycan deacetylase (HP0310, HpPgdA) from Helicobacter pylori (enzyme)
chain: MAKEILVAYGVDIDAVAGWLGSYGGEDSPDDISRGLFAGEVGIPRLLKLFKKYHLPATWFVPGHSIETFPEQMKMIVDAGHEVGAHGYSHENPIAMSTKQEEDVLLKSVELIKDLTGKAPTGYVAPWWEFSNITNELLLKHGFKYDHSLMHNDFTPYYVRVGDSWSKIDYSLEAKDWMKPLIRGVETNLVEIPANWYLDDLPPMMFIKKSPNSFGFVSPRDIGQMWIDQFDWVYREMDYAVFSMTIHPDVSARPQVLLMHEKIIEHINKHEGVRWVTFNEIADDFLKRNPRKK
notes: HP0310 (HpPgdA), peptidoglycan deacetylase, amplified from genomic H. pylori G27 with primers from the ATG to the stop codon; soluble protein of 293 amino acids; residues 2 to 291 visible in the crystal; Cloned in pET151 in frame with an N-terminal His-tag flanked by a TEV site; the entry of strain 26695 would be another; also called His tagged-Hp0310; H. pylori peptidoglycan deacetylase; source: …
Q: Which “stoichiometry N” value does the source give for B1 here?
A: Its value is 4.
